Measured values: PMC9771362

Tests used:
[1] = target: Chaetomium thermophilum dynactin p150^Glued coiled-coil 1B, p150_(CC1B) (residues 478-680) (Chaetomium thermophilum); test: SEC-MALS; complexes of IC fragments (IC_(1-88)/IC_(100-260); IC_(1-88)/p150_(CC1B)) and p150_(CC1B) alone; Superdex 200; conditions not given
[2] = target: Chaetomium thermophilum dynactin p150^Glued coiled-coil 1B, p150_(CC1B) (residues 478-680) (Chaetomium thermophilum); test: AUC; sedimentation equilibrium, dimer to monomers; three concentrations in the range 15-60 µM, 10,000, 14,000 and 18,000 rpm, 20°C; global fit to a monomer-dimer self-association model
[3] = target: Chaetomium thermophilum nuclear distribution protein NudE coiled-coil, NudECC (residues 1-190) (Chaetomium thermophilum); test: ITC; IC construct in the syringe (200-400 µM) titrated into p150_(CC1B) or NudECC in the cell (20-40 µM); 25°C; 50 mM sodium phosphate pH 7.5, 50 mM NaCl, 1 mM sodium azide; two-step model for p150_(CC1B), one-site model for NudECC
[4] = target: Chaetomium thermophilum dynactin p150^Glued coiled-coil 1B, p150_(CC1B) (residues 478-680) (Chaetomium thermophilum); test: as above
[5] = target: Chaetomium thermophilum dynein intermediate chain IC_(100-260) (Chaetomium thermophilum); test: SEC-MALS; complexes of IC fragments (IC_(1-88)/IC_(100-260); IC_(1-88)/p150_(CC1B)) and p150_(CC1B) alone; Superdex 200; conditions not given
[6] = target: Chaetomium thermophilum nuclear distribution protein NudE coiled-coil, NudECC (residues 1-190) (Chaetomium thermophilum); test: AUC; sedimentation equilibrium, dimer to monomers; three concentrations in the range 15-60 µM, 10,000, 14,000 and 18,000 rpm, 20°C; global fit to a monomer-dimer self-association model

Chaetomium thermophilum dynactin p150^Glued coiled-coil 1B, p150_(CC1B) (residues 478-680) (domain or fragment)
stoichiometry N [1]: 2 | Kd [2]: 0.03 µM | stoichiometry N [2]: 2

Chaetomium thermophilum dynein intermediate chain IC_(1-88) (domain or fragment)
Kd [3]: 0.3 µM | stoichiometry N [3]: 1 | N of each step (two-step binding model) [4]: 0.5 | stoichiometry N [4]: 1 | stoichiometry N [5]: 1 | stoichiometry N (IC (1-88) chains per p150 (CC1B) dimer) [1]: 2

Chaetomium thermophilum dynein intermediate chain IC_(37-88) (domain or fragment)
Kd [4]: 20 µM

Chaetomium thermophilum nuclear distribution protein NudE coiled-coil, NudECC (residues 1-190) (domain or fragment)
Kd [6]: 0.2 µM | stoichiometry N [6]: 2
